Consider 2 substances from patent US20160122421A1.

The target in test [1] is 383 amino acid recombinant tau (UniProt P10636). In words: ELISA binding assay, A450. (In general: ELISA stands for enzyme-linked immunosorbent assay.)
Test [2] has the same target. Put plainly: ELISA, solid phase, biotin-rTau383.
The target is the same in test [3]. In words: ELISA, solution phase, biotin-rTau383.
The target is the same in test [4]. In words: solid phase ELISA, biotin-rTau383, A450.
For test [5] the target is unchanged. In words: solution phase ELISA, biotin-rTau383, A450.
The target is the same in test [6]. Put plainly: peptide binding ELISA (A450), hu-IPN002 titrated.
The target is the same in test [7]. In words: ELISA, serially diluted hu-IPN002 with biotin-rTau383.
The next test concerns the target biotin-Tau 15-24. Put plainly: ELISA, serially diluted hu-IPN002 with biotin-Tau 15-24.
For another test, the target named is biotin-phospho Tau 15-24. In words: ELISA, serially diluted hu-IPN002 with biotin-Tau 15-24 PHOSPHO.
The target in test [8] is 383 amino acid recombinant tau (UniProt P10636). In words: peptide binding ELISA (A450), hu-IPN002 titrated; table under the curves.
The target in test [9] is humanized variant of IPN002 (hu-IPN002). Put plainly: competition ELISA; competitor: biotin-Tau 15-44 on hu-IPN002.

383 amino acid recombinant tau, sequence (P10636 other isoform, or with tags, fused parts or gaps limits assumed): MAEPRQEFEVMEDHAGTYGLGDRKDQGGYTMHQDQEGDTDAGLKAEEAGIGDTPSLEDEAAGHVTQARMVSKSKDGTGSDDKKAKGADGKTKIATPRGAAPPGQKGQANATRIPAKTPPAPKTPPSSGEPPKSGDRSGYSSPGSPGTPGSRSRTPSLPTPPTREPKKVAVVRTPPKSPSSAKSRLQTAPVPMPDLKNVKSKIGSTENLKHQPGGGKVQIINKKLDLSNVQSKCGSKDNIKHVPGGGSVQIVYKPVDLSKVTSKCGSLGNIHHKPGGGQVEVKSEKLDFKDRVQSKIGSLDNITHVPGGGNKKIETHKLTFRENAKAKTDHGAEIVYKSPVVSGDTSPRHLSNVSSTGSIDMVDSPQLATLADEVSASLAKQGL
Peptide 2 (Tau amino acids 15-44), sequence (peptide): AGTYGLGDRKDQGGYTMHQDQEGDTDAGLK

As a reminder, the EC50 (read off the curve) is the concentration at which the effect is half-maximal. Usually Kd stands for the free concentration of one partner at which half of the binding sites on the other are occupied at equilibrium, for simple one-to-one binding. With “humanized variant of IPN002 (hu-IPN002) (antibody)”, the EC50 (read off the curve) in [1] stood at 0.3 nM; in test [4], 0.1 nM; in [5], 0.1 nM; in test [6], 0.3 nM. Besides, the Kd in [1] was 0.288 nM; in [2] it was 0.107 nM; in test [3] it was 0.114 nM; in [7], 0.283 nM; with biotin-Tau 15-24, 0.754 nM; in the test with biotin-phospho Tau 15-24, 0.768 nM. The dissociation constant Kd in test [8] was found to be 0.288 nM.
Substance Peptide 2 (Tau amino acids 15-44) showed an IC50 (read off the curve) in [9] of 100 nM.
